Reference: patent US12139520B2 (priority 2020, dated 2024)
Numbered stars: 1 amine (or outer) side, 2 acyl side, 3 side chain; on linkers, the order of the positions; unused ones are H or OH. Bridge positions count the residues as written; N and C are the ends. Square brackets hold non-standard residues; d marks the D form. Side chains are listed from the residue outwards. Ends that are not written are not given here. * marks the point of attachment. C20 diacid = O=C(O)CCCCCCCCCCCCCCCCCCC(=O)*; γGlu = O=C(O)[C@H](CCC(=O)[*:2])N[*:1]; Hyp = O=C(O)[C@@H]1C[C@@H](O)CN1; AEEA = NCCOCCOCC(=O)O

Tests used:
hAMY3R = target: T1, hAMY3R (human, UniProt P30988); assay: cell-based or functional assay
T1 sequence 1: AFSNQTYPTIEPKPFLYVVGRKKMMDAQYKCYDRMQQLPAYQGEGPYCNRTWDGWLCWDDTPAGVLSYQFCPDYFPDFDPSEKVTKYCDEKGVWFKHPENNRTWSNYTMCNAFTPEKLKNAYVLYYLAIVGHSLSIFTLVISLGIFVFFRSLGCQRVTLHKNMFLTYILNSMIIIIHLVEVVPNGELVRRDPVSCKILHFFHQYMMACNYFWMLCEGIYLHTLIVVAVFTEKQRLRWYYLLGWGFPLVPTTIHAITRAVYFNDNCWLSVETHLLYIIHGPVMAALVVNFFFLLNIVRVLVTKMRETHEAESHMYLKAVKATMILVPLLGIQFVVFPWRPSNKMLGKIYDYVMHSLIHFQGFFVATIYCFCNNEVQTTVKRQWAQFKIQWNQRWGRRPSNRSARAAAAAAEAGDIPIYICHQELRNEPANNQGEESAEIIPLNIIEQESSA
T1 sequence 2: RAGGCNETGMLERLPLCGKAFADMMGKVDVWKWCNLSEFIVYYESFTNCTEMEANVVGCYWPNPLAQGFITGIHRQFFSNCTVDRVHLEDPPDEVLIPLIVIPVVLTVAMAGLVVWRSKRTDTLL

hAM1R = hAM1R (human, UniProt Q16602); assay: cell-based or functional assay

Binder	hAMY3R EC50 (cAMP) (hAMY3R)	hAM1R EC50 (cAMP) (hAM1R)
GCRFGTCTVQWLAHQIYQFTDKDKDNVAPRTKISPQG[Hyp]-NH2 (disulfide 2-7 (inferred); ends not checked) [SEQ ID NO: 350]	0.044 nM	1180 nM
{C20 diacid-γGlu}-KCNTATCTVDRLAHQIYQFTDKDKDNVAPPTNVGSNG[Hyp]-NH2 (disulfide 2-7 (inferred); ends not checked) [SEQ ID NO: 4]	0.006 nM	> 5000 nM
GCRIGTCTVQWLAHQIYQFTDKFKDNVAPRSKISPQT[Hyp]-NH2 (disulfide 2-7 (inferred); ends not checked) [SEQ ID NO: 351]	0.943 nM	> 5000 nM
GCRTGTCTVQWLAHQIYQFTDKDKDNVAPRSNIGPNG[Hyp]-NH2 (disulfide 2-7 (inferred); ends not checked) [SEQ ID NO: 352]	0.04 nM	1120 nM
GCRFGTCTVQWLAHQIYQFTDKDKDNVAPRSKVGPQG[Hyp]-NH2 (disulfide 2-7 (inferred); ends not checked) [SEQ ID NO: 353]	0.027 nM	2920 nM
GCRTGTCTVQWLAHQIYQFTDKDKDNVAPRTKVGPQGY [SEQ ID NO: 354]	0.091 nM	> 5000 nM
GCRTGTCTVQWLAHQIYQFTDKDKDNVAPRSKIGPNG[Hyp]-NH2 (disulfide 2-7 (inferred); ends not checked) [SEQ ID NO: 355]	0.14 nM	> 5000 nM
KCK([AEEA-AEEA-γGlu-C20 diacid])TATCTVQRLAEQIYQFTDKDKDNVAPPTNVGSNG[Hyp]-NH2 (disulfide 2-7 (inferred); ends not checked) [SEQ ID NO: 36]	0.009 nM	> 5000 nM
GCRTGTCTVQWLAHQIYQFTDKDKDNVAPRTNIGPQGY [SEQ ID NO: 356]	0.079 nM	> 5000 nM
GCRTGTCTVQWLAHQIYQFTDKDKDNVAPRTKIGPQG[Hyp]-NH2 (disulfide 2-7 (inferred); ends not checked) [SEQ ID NO: 357]	0.115 nM	> 5000 nM
GCRTGTCTVQWLAHQIYQFTDKDKDNVAPRTNVSPNG[Hyp]-NH2 (disulfide 2-7 (inferred); ends not checked) [SEQ ID NO: 358]	0.071 nM	> 5000 nM
GCRTGTCTVQWLAHQIYQFTDKDKDNVAPRSNIGPQG[Hyp]-NH2 (disulfide 2-7 (inferred); ends not checked) [SEQ ID NO: 359]	0.145 nM	> 5000 nM
GCRTGTCTVQWLAHQIYQFTDKDKDNVAPRSNVSPNG[Hyp]-NH2 (disulfide 2-7 (inferred); ends not checked) [SEQ ID NO: 360]	0.165 nM	> 5000 nM
KCNFATCTVQRLAHQIYQFTDKDKDNVAPRTKVGSNGY [SEQ ID NO: 361]	0.006 nM	0.913 nM
GCRFGTCTVQRLAHQIYQFTDKDKDNVAPRTNVGPQGY [SEQ ID NO: 362]	0.007 nM	18.1 nM
KCNFATCATQRLANFLVQFTDKDKDNVAPRSKIGPQGY [SEQ ID NO: 363]	0.01 nM	1.77 nM
GCRFGTCTVQRLAHFLYQFTDKDKDNVAPRTNIGPQGY [SEQ ID NO: 364]	0.01 nM	13.6 nM
GCRFGTCTVQRLAHFLYQFTDKDKDNVAPRTKIGPQGY [SEQ ID NO: 365]	0.012 nM	1.21 nM
{C20 diacid-γGlu}-KCNTATCTVARLAHQIYQFTDKDKDNVAPPTNVGSNG[Hyp]-NH2 (disulfide 2-7 (inferred); ends not checked) [SEQ ID NO: 37]	0.01 nM	> 5000 nM

Binder	hAMY3R EC50 (cAMP) (hAMY3R)	hAM1R EC50 (cAMP) (hAM1R)
GCRFGTCTVQRLAHQIYQFTDKDKDNVAPRTNISPNGY [SEQ ID NO: 366]	0.013 nM	12.1 nM
GCRFGTCTVQRLAHQIYQFTDKDKDNVAPRTKIGPNGY [SEQ ID NO: 367]	0.014 nM	0.563 nM
GCRFGTCTVQRLAHQIYQFTDKDKDNVAPRTKVGPQGY [SEQ ID NO: 368]	0.015 nM	0.997 nM
GCRFGTCTVQRLAHFLYQFTDKDKDNVAPRTKVGPQGY [SEQ ID NO: 369]	0.017 nM	2.48 nM
{C20 diacid-γGlu}-KCNFATCTVQRLAHQIYQFTDKDKDNVAPRTEVGSNGY-NH2 (disulfide 2-7 (inferred); ends not checked) [SEQ ID NO: 370]	0.017 nM	10.3 nM
GCRFGTCTVQRLAHQIYQFTDKDKDNVAPRTKISPNGY [SEQ ID NO: 371]	0.019 nM	3.03 nM
{C20 diacid-γGlu}-GCRFGTCTVQRLANQIYQFTDKDKDNVAPRTNVGPQGY-NH2 (disulfide 2-7 (inferred); ends not checked) [SEQ ID NO: 372]	0.02 nM	3.94 nM
GCRFGTCTVQRLAHQIYQFTDKDKDNVAPRSNVGPNGY [SEQ ID NO: 373]	0.02 nM	7.71 nM
GCRFGTCTVQRLAHQIYQFTDKDKDNVAPRSNVGPQGY [SEQ ID NO: 374]	0.021 nM	12 nM
GCRFGTCTVQRLAHQIYQFTDKDKDNVAPRSKVGPQGY [SEQ ID NO: 375]	0.022 nM	0.403 nM
{C20 diacid-γGlu}-KCNTATCTVNRLAHQIYQFTDKDKDNVAPPTNVGSNG[Hyp]-NH2 (disulfide 2-7 (inferred); ends not checked) [SEQ ID NO: 38]	0.01 nM	> 5000 nM
GCRFGTCTVQRLAHFLYQFTDKDKDNVAPRTKIGSNGY [SEQ ID NO: 376]	0.022 nM	12 nM
GCRFATCTVQRLAHFLYQFTDKDKDNVAPRTKVGPQGY [SEQ ID NO: 377]	0.024 nM	0.243 nM
{C20 diacid-γGlu}-KCNFATCTVQRLAHQIYQFTDKDKDNVAPRTKVGSNGY-NH2 (disulfide 2-7 (inferred); ends not checked) [SEQ ID NO: 378]	0.027 nM	0.893 nM
GCRFGTCTVQRLAHQIYQFTDKDKDNVAPRTNIGPQGY [SEQ ID NO: 379]	0.029 nM	0.458 nM
{C20 diacid-γGlu}-GCRFATCTVQRLAHQIYQFTDKDKDNVAPRTKVGPQGY-NH2 (disulfide 2-7 (inferred); ends not checked) [SEQ ID NO: 380]	0.031 nM	0.162 nM
GCRFGTCTVQRLAHQIYQFTDKDKDNVAPRTNIGPNGY [SEQ ID NO: 381]	0.032 nM	7.61 nM
GCRFGTCTVQRLAHQIYQFTDKDKDNVAPRSNIGPQGY [SEQ ID NO: 382]	0.034 nM	5.12 nM
GCRFGTCTVQRLAHQIYQFTDKDKDNVAPRSNISPNGY [SEQ ID NO: 383]	0.034 nM	5.93 nM
